Measured values as given in patent publication US11142588B2, “Polypeptides which bind C-X-C chemokine receptor type 4 (CXCR4) and methods of treating or reducing the risk of fibrosis and cancer” (AdAlta Limited, priority 2015, dated 2021).
Entries after “also recorded” stand apart in the source; their conditions may differ.

Legend:
[1] = Binding to null lipoparticles (off-target control)
Method: (FIGS. 2A-2C, 5A-5C, 11A-11D, 17A-17B) Kinetic binding analysis of selected i-bodies with immobilized CXCR4 lipoparticles were performed at 25° C. using Biacore T200 instrument (GE Healthcare, Uppsala, Sweden). Streptavidin immobilization was performed in 1×HBS-P+ running buffer (10 mM HEPES, 150 mM NaCl, 0.05% [v/v] Tween-20). Amine coupling kit (GE Healthcare) and the instructions therein were utilized for the attachment of Streptavidin (Sigma; diluted to 100 μg/mL in 10 mM sodium acetate buffer pH 4.5) in all four channels on the sensor chip surface simultaneously, resulting in >6,000 RU of Streptavidin being coupled (1 RU=1 pg protein/mm^2). All binding experiments involving lipoparticles were performed with 1×HBS/BSA (10 mM HEPES, 150 mM NaCl, 1 mg/mL BSA) as instrument running buffer. Biotinylated CXCR4 lipoparticles (Integral Molecular, Cat #LEV-101B; 3.6 U/mL as described in WO 2005/042695) were typically diluted 1 in 20 in the running buffer and immobilized onto a Streptavidin containing channel by injecting at […] for 1,800 sec resulting in captured response levels of greater than 2,500 RU. […] In order to determine binding kinetics, serial dilutions (three-fold) of i-bodies diluted in 1×HBS/BSA were injected over immobilized lipoparticles with the association and dissociation phases monitored for 60 sec and 600 sec, respectively. […]

[2] = molecular target: CCR5 positive lipoparticles (Homo sapiens, UniProt P51681); test: Biacore SPR binding to CCR5 positive lipoparticles (off-target control)
[3] = molecular target: T1, CCR4 (Homo sapiens, UniProt P51679); test: PathHunter (DiscoverX) β-arrestin assay, CCR4; assay type: cell-based
T1 sequence (P51679 1-360): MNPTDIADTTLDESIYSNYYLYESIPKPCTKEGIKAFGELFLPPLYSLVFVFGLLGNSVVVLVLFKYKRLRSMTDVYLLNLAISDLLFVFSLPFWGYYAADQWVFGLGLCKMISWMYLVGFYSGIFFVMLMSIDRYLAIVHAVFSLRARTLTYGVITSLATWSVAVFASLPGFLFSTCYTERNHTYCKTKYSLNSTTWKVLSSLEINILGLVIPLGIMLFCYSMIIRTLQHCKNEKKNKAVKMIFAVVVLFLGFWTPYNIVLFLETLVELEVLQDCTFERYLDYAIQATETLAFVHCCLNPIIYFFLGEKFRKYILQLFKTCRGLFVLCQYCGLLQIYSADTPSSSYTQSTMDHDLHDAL
Method: (FIG. 9) The PathHunter® β-Arrestin assay (DiscoveRx) was performed according to the manufacturer's protocol. Cells were seeded into white walled, 384-well tissue culture-treated microplates (Corning) and normalized at 5,000 cells (or 10,000 cells for CXCR4) in a total volume of […]. Cell growth was at 37° C. (5% CO2, 95% relative humidity). […] Agonists were then added at the EC80 concentration and incubation was continued at 37° C. for 90 min (or 180 min for CCR1). Assay signal was generated through a single addition of 15 μL (50% v/v) of PathHunter Detection reagent cocktail, followed by 1 h incubation at room temperature. Microplates were read following signal generation with a PerkinElmer Envision instrument for chemiluminescent signal detection of relative light units (RLU).

[4] = molecular target: CXCR4 (Homo sapiens, UniProt P61073); test: β-arrestin BRET assay, antagonist mode with 100 nM SDF-1; assay type: cell-based; design: expressed in transfected cells; host or cells: HEK293FT
Description: (FIGS. 3A-3F and 14) BRET was used in this study to assess the real-time kinetic profiles resulting from any consequent increase in proximity, building upon the previously validated monitoring of GPCR/β-arrestin interactions utilizing BRET. BRET occurs between a complementary Renilla luciferase (Rluc) variant as donor and green fluorescent protein variant as acceptor. Upon Rluc-catalyzed oxidation of the coelenterazine substrate (such as coelenterazine h for first generation BRET (BRET) or EnduRen for extended BRET (eBRET), energy is transferred to the acceptor if within 10 nm, resulting in acceptor light emission peaking at a characteristic wavelength. BRET (3-arrestin assays were carried out as described previously (See, H. B., Seeber, R. M., Kocan, M., Eidne, K. A. and Pfleger, K. D. (2011) ‘Application of G protein-coupled receptor-heteromer identification technology to monitor beta-arrestin recruitment to G protein-coupled receptor heteromers’, Assay Drug Dev Technol, 9(1), 21-30, 10.1089/adt.2010.0336). CXCR4/Rluc8 cDNA constructs were generated from plasmids containing the respective receptor cDNA tagged with Rluc kindly provided by Aron Chakera (Oxford University, United Kingdom). The β-arrestin 2/Venus cDNA construct was prepared previously from pCS2-Venus kindly provided by Atsushi Miyawaki (RIKEN Brain Science Institute, Wako-city, Japan). BRET technology in cells transiently expressing CXCR4/Rluc8 and β-arrestin2/Venus in the presence of 100 nM SDF-1 agonist was evaluated in the presence of the CXCR4 agonist SDF-1/CXCL12 and the i-bodies. HEK293FT cells were maintained at 37° C., 5% CO2 in Complete Media (Dulbecco's modified Eagle's medium containing 0.3 mg/mL glutamine, 100 IU/mL penicillin, and […] streptomycin; Gibco) supplemented with 10% fetal calf serum (FCS) and […] Geneticin (Gibco). Transfections were carried out 24 h after seeding using Genejuice (Novagen) according to manufacturer's instructions. Cells were harvested with 0.05% Trypsin-EDTA (Gibco). HEK293FT cells were transfected using FuGene6 (Promega). 5 μM coelenterazine h (Promega) in HBSS was used as the luciferase substrate solution. Cells were harvested 24 h post-transfection in HEPES-buffered phenol red-free Complete Medium containing 5% FCS and added to a poly-L-lysine-coated white 96-well plate (Nunc). Dose-response curves were generated using BRET, with medium in the plate being replaced with PBS containing […] coelenterazine h (Molecular Probes) and assays carried out immediately. For these assays, 48 h post-transfection, the plate was incubated at […], 5% CO2 for 2 h with […] EnduRen (Promega) to ensure substrate equilibrium was reached. All BRET measurements were taken at 37° C. using the VICTOR Light plate reader with Wallac 1420 software (PerkinElmer). Filtered light emissions were sequentially measured at 400-475 and 520-540 nm. The BRET signal was calculated by subtracting the ratio of 520-540 nm emission over 400-475 nm emission for a vehicle-treated cell sample from the same ratio for a second aliquot of the same cells treated with agonist (in this instance in the presence of SDF-1 or CXCL12) and i-body (ADCX-99, ADCX-272, ACDX-6, ACDX-306, ADCX-668) at various concentrations. Data are mean±S.E.M. of four independent experiments carried out in duplicate.
Binding of the i-bodies to CXCR4 were examined in a β-Arrestin BRET assay as described in See, Heng B et al (2011) Assay and Drug Development Technologies 9(1):21-30. The i-bodes were examined at ten concentrations with and without 100 nM SDF-1 with the addition of ‘vehicle’ and ‘SDF-1+vehicle’ controls in order to characterise if the i-bodies are agonist or antagonists of CXCR4 activity.

CXCR4, sequence (P61073 whole entry): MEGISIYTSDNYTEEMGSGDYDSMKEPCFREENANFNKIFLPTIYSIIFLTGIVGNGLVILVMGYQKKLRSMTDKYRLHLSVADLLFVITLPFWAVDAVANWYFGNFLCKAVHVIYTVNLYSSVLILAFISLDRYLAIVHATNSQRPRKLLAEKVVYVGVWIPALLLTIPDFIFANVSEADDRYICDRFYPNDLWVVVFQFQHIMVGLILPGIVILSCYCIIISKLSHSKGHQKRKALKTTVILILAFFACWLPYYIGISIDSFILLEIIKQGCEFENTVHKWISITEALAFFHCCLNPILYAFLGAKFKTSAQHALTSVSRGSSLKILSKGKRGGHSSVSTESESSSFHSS
CCR5 positive lipoparticles, sequence (P51681 whole entry): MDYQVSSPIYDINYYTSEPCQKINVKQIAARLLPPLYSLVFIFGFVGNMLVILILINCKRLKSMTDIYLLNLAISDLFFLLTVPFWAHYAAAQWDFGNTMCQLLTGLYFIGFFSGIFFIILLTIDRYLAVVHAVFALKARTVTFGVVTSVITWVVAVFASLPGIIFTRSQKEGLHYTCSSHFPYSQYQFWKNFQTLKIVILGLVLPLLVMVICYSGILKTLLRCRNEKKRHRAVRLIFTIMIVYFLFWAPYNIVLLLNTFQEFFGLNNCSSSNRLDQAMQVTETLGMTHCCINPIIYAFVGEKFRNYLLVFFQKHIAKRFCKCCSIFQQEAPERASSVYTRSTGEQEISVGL

CCR4 activity [3]: 34%
β-arrestin activity ([4]; various concentrations): some degree of inhibition
B1: ADCX-99: CXCR4 binding i-body, SEQ ID NO: 11, parent of affinity matured binders (protein)
chain: LQVDIVPSQGEISVGESKFFLCQVAGSGSDIRISWFSPNGEKLTPNQQRISVVWNDDSSSTLTIYNANIDDAGIYKCVVYRTGGYRHRALVLGEATVNVKIFQ
modifications: ADCX-99 protein sequence
binding to null lipoparticles [1]: did not bind; also recorded: very little binding
binding to CCR5 positive lipoparticles [2]: did not bind; also recorded: very little binding
IC50 (nM) in β-Arrestin BRET assay (Antagonist mode in the presence of 100 nM SDF-1) [4]: very weak effect; also recorded: No activity
